Source: US20250179196A1 (Janssen / Centocor, published 2025)
Substitutions are numbered along the chain they refer to.

T1: human IL-23R expressed on the cell surface of stably transfected iLite and HEK cell lines (human, UniProt Q5VWK5 24-629)
T1 construct: whole, on cells; Same receptor on two transfected cell lines; the cell line is named under assay; also called human IL-23R iLite cells; human IL-23R HEK cells
T1 sequence (looked up): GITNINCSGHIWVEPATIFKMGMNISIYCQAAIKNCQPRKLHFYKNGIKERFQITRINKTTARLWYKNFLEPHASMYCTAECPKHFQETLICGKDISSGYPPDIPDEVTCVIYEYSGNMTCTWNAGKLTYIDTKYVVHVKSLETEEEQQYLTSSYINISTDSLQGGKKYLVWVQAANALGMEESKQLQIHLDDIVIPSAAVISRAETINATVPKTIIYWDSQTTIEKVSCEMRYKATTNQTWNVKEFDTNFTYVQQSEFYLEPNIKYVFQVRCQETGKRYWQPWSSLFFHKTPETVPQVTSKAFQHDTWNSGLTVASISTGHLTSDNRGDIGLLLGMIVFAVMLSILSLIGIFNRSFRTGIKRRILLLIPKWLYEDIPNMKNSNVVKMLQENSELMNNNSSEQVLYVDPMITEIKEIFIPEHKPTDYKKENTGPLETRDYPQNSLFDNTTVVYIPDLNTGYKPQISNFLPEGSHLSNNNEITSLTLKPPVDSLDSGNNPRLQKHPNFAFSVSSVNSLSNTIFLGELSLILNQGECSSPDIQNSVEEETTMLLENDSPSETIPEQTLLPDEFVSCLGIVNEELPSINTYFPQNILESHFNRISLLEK

T2: human IL-23R extracellular domain (ECD) protein (human, UniProt Q5VWK5 24-355)
T2 construct: Recombinant ECD; also called hu IL-23R ECD
T2 sequence: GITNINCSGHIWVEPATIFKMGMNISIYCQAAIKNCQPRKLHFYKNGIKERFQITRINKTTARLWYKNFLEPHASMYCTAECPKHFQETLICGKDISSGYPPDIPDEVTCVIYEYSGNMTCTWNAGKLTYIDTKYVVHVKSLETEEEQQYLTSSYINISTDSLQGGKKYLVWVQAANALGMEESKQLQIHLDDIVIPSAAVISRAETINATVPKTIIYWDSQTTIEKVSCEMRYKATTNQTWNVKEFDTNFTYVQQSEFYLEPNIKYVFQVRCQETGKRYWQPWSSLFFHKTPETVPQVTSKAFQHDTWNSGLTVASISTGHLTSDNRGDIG

B1: I23RB1 (antibody, mouse IgG2a, kappa, V domains shown)
VH: QVQLVQSGAEVKKPGSSVKVSCKASGGTFKNYAISWVRQAPGQGLEWMGWIRPIFGTAYYAQKFQGRVTITADESTSTAYMELSSLRSEDTAVYYCARDSGSRYAGRYAFDYWGQGTLVTVSS
VL: EIVLTQSPATLSLSPGERATLSCRASQSVSSYLAWYQQKPGQAPRLLIYDASNRATGIPARFSGSGSGTDFTLTISSLEPEDFAVYYCQQRSNWPLTFGQGTKVEIKR
notes: phage display; human V, mouse IgG2a/kappa
B2: I23RB3 (antibody, mouse IgG2a, kappa, V domains shown)
VH: QVQLVQSGAEVKKPGSSVKVSCKASGGTFKSYSIHWVRQAPGQGLEWMGGIIPYFGYANYAQKFQGRVTITADESTSTAYMELSSLRSEDTAVYYCARERGYYGSIYYGGGFDYWGQGTLVTVSS
VL: B1 VL
notes: as for B1
B3: I23RB4 (antibody, mouse IgG2a, kappa, V domains shown)
VH: QVQLVQSGAEVKKPGSSVKVSCKASGGTFKTYAIHWVRQAPGQGLEWMGWIIPIFGTANYAQKFQGRVTITADESTSTAYMELSSLRSEDTAVYYCARDGGYYGSRYYPRSYYFDYWGQGTLVTVSS
VL: B1 VL
notes: as for B1
B4: I23RB7 (antibody, mouse IgG2a, kappa, V domains shown)
VH: QIQLVQSGPELKKPGETVKISCKASGYTFTTYGMSWVKQAPGKGLKWMGWINTYSGVPTYADDFKGRFAFSLETSASTAYLQINNLKNEDTATYYCARRDRYGYVAGAFAYWGQGTLVTVSS
VL: QIVLTQSPAIMSASPGEKVTMTCSASSSVSYMYWYQQKPGSSPRLLIYDTSNLASGVPVRFSGSGSGTSYSLTISRMEAEDAATYYCQQWSSYPWTFGGGTKLEIKR
notes: phage display; mouse V, mouse IgG2a/kappa
B5: I23RB2 (antibody, mouse IgG2a, kappa, V domains shown)
VH: QVQLVQSGAEVKKPGSSVKVSCKASGGTFSSYAISWVRQAPGQGLEWMGGIIPIFGTANYAQKFQGRVTITADESTSTAYMELSSLRSEDTAVYYCARDRYRYLGANGFDYWGQGTLVTVSS
VL: B1 VL
notes: as for B1
B6: I23RB189 (antibody, mouse IgG2a, kappa, V domains shown)
VH: DVQLQESGPDLVKPSQSLSLTCTVTGYSITSGYNWHWIRQFPGNKLEWMGYIHSSGTTNYSPSLRSRLSITRDTSKNQFFLQLNSVTTEDTATYYCTRQLGLKAMEYWGQGTTLTVSS
VL: DIVLTQSPKSMSMSVGERVTLSCKASENVGTYVSWYQQKPEQSPKLLMYGASNRYTGVPDRFTGSGSATDFTLTISSVQAEDLADYHCGQSYSYPPTFGGGTKLEIKR
notes: immunization; mouse IgG2a/kappa
B7: I23RB149 (antibody, mouse IgG2a, kappa, V domains shown)
VH: B6 VH with S54F, G56D, T57R, S61N, R65K, L68I, T88S, T97S, M105L, E106D
VL: DVQMIQSPLSLPVSLGDQASISCRSSQSLVHSNGNTYLHWYLQKPGQSPKLLIYKVSNRFSGVPDRFSGSGSGTDFTLKISRVEAEDLGVYFCSQSTHVPLTFGAGTRLEIKR
notes: as for B6

Biological target: T1, human IL-23R expressed on the cell …
Assay: flow cytometry on human IL-23R HEK cells, Expt E (11-point, 384well)
In short: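 Antibody bound to HEK-IL-23R cells 30 min at 37 °C over 11 concentrations; after washes, Sytox Green added and cells run on iQue. Geometric MFI of 647 detection antibody on single viable cells fitted by variable-slope dose–response.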

Row | Binder | MFI (6.4 nM)
1 | B1 | 287000 MFI
2 | B2 | 149000 MFI
3 | B3 | 225000 MFI
4 | B4 | 172000 MFI

Biological target: T2, human IL-23R extracellular domain (ECD) …
Assay: column 'Affinity to hu IL-23R ECD' (summary of SPR data)

Row | Binder | Kd
5 | B4 | 1 nM

Biological target: T1, human IL-23R expressed on the cell …
Assay: flow cytometry on human IL-23R iLite cells, Expt C (12-point), Gate 1 + 2
Method: (§1) Human IL-23R iLiTe cell concentration response mAb binding. […] The next day 100,000 cells were added to each well of a 96 well V bottom plate (Costar, Catalog #3357), centrifuged at 450× gravity for 2 minutes, and then supernatants were decanted. Antibodies were diluted in Stain Buffer (BSA) (BD Pharmagen, Catalog #554657) and added at 50 μL/well, and mixed. Plates were incubated on ice for 50 minutes, then plates were centrifuged and supernatants were decanted. […] Cells were washed by adding 200 μL/well of Stain Buffer followed by centrifugation and decanting of the supernatants. Cells were resuspended in 100 μL/well of Stain Buffer, transferred in quadruplicate to a 384 well plate (Greiner, Catalog #781281) and analyzed on the Becton Dickenson LSR II FACS instrument with HTS module. Data was analyzed using FlowJo software (Treestar) to obtain geometric mean fluorescence intensities, and geometric mean fluorescence intensities were plotted over log mAb concentrations fitted with a sigmoidal dose response curve with variable slope using GraphPad Prism.

Row | Binder | EC50
6 | B1 | 0.26 nM
7 | B2 | 0.66 nM
8 | B3 | 0.04 nM
9 | B5 | 1.09 nM
10 | B4 | 0.07 nM

Biological target: T1, human IL-23R expressed on the cell …
Assay: flow cytometry on human IL-23R iLite cells, Expt B (1-point)
Method: Human IL-23R iLiTe cell single concentration mAb Binding. Anti-IL-23R mouse IgG₂ₐ mAbs derived from phage panning were tested for binding to human IL-23R expressing iLiTe cells, where a PE conjugated anti mouse secondary antibody detected mAbs bound to the receptor on the cells. […] The next day 100,000 cells were added to each well of a 96 well V bottom plate (Costar, Catalog #3357), centrifuged at 450× gravity for 2 minutes, and then supernatants were decanted. […] Cells were washed by adding 100 μL/well of Stain Buffer followed by centrifugation and decanting of the supernatants. Cells were resuspended in 100 μL/well of Stain Buffer and analyzed on the Becton Dickenson LSR II FACS instrument with HTS module. Data was analyzed using FlowJo software (Treestar) to obtain geometric mean fluorescence intensities.

Row | Binder | MFI @ 0.7 nM
11 | B1 | 2990 MFI
12 | B2 | 1460 MFI
13 | B3 | 2990 MFI
14 | B5 | 670 MFI
15 | B4 | 2230 MFI

Biological target: T1, human IL-23R expressed on the cell …
Assay: flow cytometry on human IL-23R HEK cells, Expt D (8-point, 96well); legend: N-No cell binding observed
Method: HEK-IL-23R cell concentration response mAb binding (8-point, 96-well assay). […] HEK-IL-23R and HEK-parental cells (12.5 μL of each, 120000 cells total) were plated in 2× replicate on 96-well V-bottom plates (Corning, Cat #3357) into 37° C. warmed Assay medium containing serially diluted IL-23R mAbs to a final volume of 150 μL. IL-23R mAbs were allowed to bind to cells for 30 minutes, at 37° C. […] Cells were next washed twice in ice-cold stain buffer, then resuspended in a final volume of 30 μL with Sytox Green viability dye (ThermoFisher, Cat #S7020). Plates were kept on ice until run for analysis on the iQue. All washes were performed by centrifugation (800 rcf, 3 minutes) followed by flick decantation to remove supernatants. Cell-binding to HEK-IL-23R cells was measured with FlowJo, by gating for single, viable cells and determining the geometric mean fluorescence intensity (MFI) for the 647 detection antibody. Geometric mean fluorescence intensities were plotted over log mAb concentrations fitted with a dose response curve with variable slope using GraphPad Prism.

Row | Binder | binding result
16 | B6 | no binding
17 | B7 | no binding

Biological target: T1, human IL-23R expressed on the cell …
Assay: flow cytometry on human IL-23R iLite cells, Expt C (12-point), Gate 2
Method: as §1

Row | Binder | EC50
18 | B1 | 0.02 nM
19 | B2 | 0.37 nM
20 | B3 | 0.03 nM
21 | B5 | 1.11 nM
22 | B4 | 0.1 nM

Biological target: T1, human IL-23R expressed on the cell …
Assay: flow cytometry on human IL-23R iLite cells, Expt A (1-point)
Method: Human IL-23R iLiTe cell single concentration mAb Binding. Anti-IL-23R mouse IgG₂ₐ mAbs derived from phage panning were tested for binding to human IL-23R expressing iLiTe cells, where a PE conjugated anti mouse secondary antibody detected mAbs bound to the receptor on the cells. […] The next day 100,000 cells were added to each well of a 96 well V bottom plate (Costar, Catalog #3357), centrifuged at 450× gravity for 2 minutes, and then supernatants were decanted. […] Antibodies diluted to 3 μg/mL in Stain Buffer (BSA) (BD Pharmagen, Catalog #554657) were added at 100 μL/well and incubated on ice for 50 minutes, then plates were centrifuged and supernatants were decanted. […] Cells were washed by adding 100 μL/well of Stain Buffer followed by centrifugation and decanting of the supernatants. Cells were resuspended in 100 μL/well of Stain Buffer and analyzed on the Becton Dickenson LSR II FACS instrument with HTS module. Data was analyzed using FlowJo software (Treestar) to obtain geometric mean fluorescence intensities.

Row | Binder | MFI @ 20 nM
23 | B1 | 5090 MFI
24 | B2 | 4320 MFI
25 | B3 | 4390 MFI
26 | B5 | 4110 MFI
27 | B4 | 4320 MFI
